Measurements reported in US12662531B2, “CLDN18.2 antibody and use thereof” (FUTUREGEN BIOPHARMACEUTICAL (BEIJING) CO., LTD., priority 2019, dated 2026).

Legend:
[1] = system: SNU601 cells expressing CLDN18.2; test: Endocytosis of antibody after binding to SNU601 cells stably expressing CLDN18.2; assay type: cell-based; conditions: 10 μg/ml, 4 h
Protocol: It has been reported that the binding of some antibodies to cell surface antigens can cause endocytosis of antigen and antibody complexes, thereby reducing the expression level of the cell surface antigens and accelerating antibody metabolism in vivo (Schrama D et al., 2006, Nat Rev Drug Discov). In this example, the ability of antibodies 18.2-A1, 18.2-A3, 18.2-A4 and 18.2-A6 to be endocytosed by cells was tested in SNU601 cells stably expressing CLDN18.2. […] Subsequently, they were washed at 4° C. and stained with PE-labeled anti-human IgG antibody. After fixation with 4% formalin, antibody binding on the cell surface was tested by flow cytometry.

[2] = molecular target: T1, CLDN18.2 (CT26-CLDN18.2 cells) (Homo sapiens, UniProt P56856); test: Flow cytometry binding of recombinant antibodies to CT26-CLDN18.2 cells; conditions: 4° C. 1 hour
T1 construct: expressed in transfected cells; host or cells: CT26 cells (mouse), lentiviral transduction, puromycin selection
Protocol: Binding activities of the recombinant monoclonal antibodies to CLDN18.2 were determined. Specifically, well-grown cell lines stably expressing CT26-CLDN18.2 were taken. The cells were washed with PBS, mixed with the fold-diluted antibody and incubated at 4° C. for 1 hour. The cells were washed once with flow cytometry buffer, PE-labeled anti-human IgG antibody was added, and incubated at 4° C. for 30 minutes. The supernatant was removed by centrifugation, and after the cells were washed with flow cytometry buffer, the fluorescence intensity on the surface of the cells was tested by flow cytometry. The relative binding activity of each antibody was calculated using the average fluorescence intensity.
The binding activity of the defucosylated antibodies 18.2-A1F, 18.2-A3F and 18.2-A4F to CLDN18.2 as compared to the binding activity of 18.2-A1, 18.2-A3 and 18.2-A4 to CLDN18.2 was tested by flow cytometry, the method of which is as described in Example 5, and the experimental results are shown in FIG. 7.

control CT26 cell line = test: Flow cytometry binding to control CT26 cell line; conditions: results not shown
[3] = molecular target: T2, CLDN18.2 (CLDN18.2-Flag 293t cells) (Homo sapiens, UniProt P56856); test: Binding specificity, 293t cells expressing CLDN18.2-Flag, flow cytometry; conditions: 10 μg/ml antibody, 4° C. 1 hour
T2 construct: expressed in transfected cells; host or cells: 293t cells, transient transfection
From the text: (§1) Human Claudin18 proteins include two homologues, i.e., CLDN18.1 and CLDN18.2, which share exons other than exon 1, and the exon 1 sequences of CLDN18.1 and CLDN18.2 are highly similar with only 8 different amino acids in the first extracellular region. The exon 1 of CLDN18.1 and the exon 1 of CLDN18.2 are specifically expressed in different tissues driven by different promoters. Among them, CLDN18.1 is specifically expressed in lung epithelial cells, while CLDN18.2 is specifically expressed in gastric epithelial cells. To identify the specificity of the screened CLDN18.2 antibodies, binding of the antibodies to CLDN18.1 and CLDN18.2 was tested.
(§2) Specifically, well-grown 293t cells were taken to transiently express flag-tagged CLDN18.1 (CLDN18.1-Flag) or CLDN18.2 (CLDN18.2-Flag). 48 hours after transfection, the cells were digested with trypsin. After washed with flow cytometry buffer, the cells were mixed with 10 μg/ml of isotype control antibody or one of the above five CLDN18.2 antibodies in 200 μl of flow cytometry buffer, and were incubated at 4° C. for 1 hour. Subsequently, the cells were washed once with flow cytometry buffer, PE-labeled anti-human IgG antibody was added, and incubated at 4° C. for 30 min. The supernatant was removed by centrifugation, wash was performed twice with flow cytometry buffer, and the cells were fixed in a fix solution containing 1% paraformaldehyde and 0.5% triton-X100 and the cell membrane was permeabilized. Subsequently, the cells were incubated with APC-labeled anti-flag antibody for 30 min and tested by flow cytometry.

[4] = molecular target: T3, CLDN18.1 (CLDN18.1-Flag 293t cells) (Homo sapiens, UniProt P56856); test: Binding specificity, 293t cells expressing CLDN18.1-Flag, flow cytometry; conditions: 10 μg/ml antibody, 4° C. 1 hour
T3 construct: expressed in transfected cells; host or cells: 293t cells, transient transfection
From the text: as §1, §2

[5] = system: human FcγRIIIa (V158) on FcγRIIIa-Jurkat cells; test: Flow cytometry binding to FcγRIIIa-Jurkat cells
From the text: We next further tested the binding activity of the CLDN18.2 antibodies and their defucosylated forms to FcγRIIIa expressed on the cell surface. Specifically, the human FcγRIIIa (V158, high FC binding subtype) gene was cloned into a mammalian cell expression vector carrying a puromycin screening marker and transfected into a Jurkat cell line. A cell line stably expressing FcγRIIIa (FcγRIIIa-Jurkat) was screened with puromycin. In addition, NK92MI is a human NK cell line that naturally expresses the FcγRIIIa receptor (F158, low FC binding subtype). The binding ability of the CLDN18.2 antibodies and their defucosylated forms to FcγRIIIa expressed on the surface of FcγRIIIa-jurkat cells and NK92MI cells was tested by flow cytometry. The specific flow cytometry assay is described with reference to Example 6.

[6] = system: untransfected Jurkat cells; test: Flow cytometry binding to untransfected Jurkat cells; conditions: results not shown

| binding to CT26 cell line expressing CLDN18.2 [2] | binding to CLDN18.2-flag transfected positive 293t cells [3] | binding to CLDN18.1-positive cells [4] | Molecule | binding to SNU601 cells expressing CLDN18.2 under 4° C. incubation [1] | antibody staining/binding on the cell surface under 37° C. incubation [1] | binding to control CT26 cell line (control CT26 cell line) | endocytosis by cells under 37° C. incubation [1] | binding to FcγRIIIa-jurkat cells [5] | binding to untransfected Jurkat cells [6] |
| --- | --- | --- | --- | --- | --- | --- | --- | --- | --- |
|  |  |  | IMAB362: CLDN18.2 specific antibody (IMAB362, Ganymed) [reference compound] | bound well | decreased significantly |  |  |  |  |
| able to bind well | able to bind well | none of the six antibodies bound | 18.2-A2: recombinant monoclonal CLDN18.2 antibody, VH SEQ ID NO: 11, VL SEQ ID NO: 16 (antibody, V domains shown, 18.2-A2 VH; 18.2-A2 VL) VH: EVQLVQSGAEVKKPGASVKVSCKASGYTFTSFWVGWVRQAPGQGLEWIGNVSPSDSYTNYNQKFKDRATLTVDKSTSTAYMELSSLRSEDTAVYYCTRLSSGNSFDYWGQGTLVTVSS VL: DIVMTQSPDSLSVSLGERATINCKSSQSVLNSGNQKNYLTWYQQKPGQPPKLLIYWSSTKQSGVPDRFSGSGSGTDFTLTISSLQAEDVAVYYCQNAFSFPFTFGQGTKVEIK |  |  | did not bind |  |  |  |
| able to bind well | able to bind well | none of the six antibodies bound | 18.2-A6: recombinant monoclonal CLDN18.2 antibody, VH SEQ ID NO: 55, VL SEQ ID NO: 60 (antibody, V domains shown, 18.2-A6 VH; 18.2-A6 VL) VH: EVQLVQSGAEVKKPGASVKVSCKASGYTFTSYWLGWVRQAPGQGLEWIGIIYPSDSYTNYNQKFKDRATLTVDKSTSTAYMELSSLRSEDTAVYYCTRFWRGNSFDYWGQGTLVTVSS VL: DIVMTQSPDSLTIGLGERATINCKSSQSLLNSGNQKNYLTWYQQKPGQPPKLLIYWAAGKESGVPDRFSGSGSGTDFTLTISSLQAEDVAVYYCQNGYSHPFTFGQGTKVEIK | bound well | still bound well | did not bind | did not undergo significant endocytosis |  |  |
| able to bind well | able to bind well | none of the six antibodies bound | 18.2-A5: recombinant monoclonal CLDN18.2 antibody, VH SEQ ID NO: 41, VL SEQ ID NO: 46 (antibody, V domains shown, 18.2-A5 VH; 18.2-A5 VL) VH: EVQLVQSGAEVKKPGASVKVSCKASGYTFTSSWVGWVRQAPGQGLEWIGNSYPSDSYTNYNQKFKDRATLTVDKSTSTAYMELSSLRSEDTAVYYCTRLGRGNSFDYWGQGTLVTVSS VL: DIVMTQSPDSLTVALGERATINCKSSQSLIHSGNQKNYLTWYQQKPGQPPKLLIYWGLSKNSGVPDRFSGSGSGTDFTLTISSLQAEDVAVYYCQNSIYYPFTFGQGTKVEIK |  |  | did not bind |  |  |  |
| able to bind well | able to bind well | none of the six antibodies bound | 18.2-A4: recombinant monoclonal CLDN18.2 antibody, VH SEQ ID NO: 31, VL SEQ ID NO: 36 (antibody, V domains shown, 18.2-A4 VH; 18.2-A4 VL) VH: EVQLVQSGAEVKKPGASVKVSCKASGYTFTSFWISWVRQAPGQGLEWIGNILPSDSYTNYNQKFKDRATLTVDKSTSTAYMELSSLRSEDTAVYYCTRYWRGNSFDYWGQGTLVTVSS VL: DIVMTQSPDSLALALGERATINCKSSQSIINSGNQKNYLTWYQQKPGQPPKLLIYWGGTRHSGVPDRFSGSGSGTDFTLTISSLQAEDVAVYYCQNGYYSPFTFGQGTKVEIK | bound well | still bound well | did not bind | did not undergo significant endocytosis | able to bind | not able to bind |
| able to bind well | able to bind well | none of the six antibodies bound | 18.2-A3: recombinant monoclonal CLDN18.2 antibody, VH SEQ ID NO: 21, VL SEQ ID NO: 26 (antibody, V domains shown, 18.2-A3 VH; 18.2-A3 VL) VH: EVQLVQSGAEVKKPGASVKVSCKASGYTFTSYWLNWVRQAPGQGLEWIGSMYPSDSYTNYNQKFKDRATLTVDKSTSTAYMELSSLRSEDTAVYYCTRFSRGNSFDYWGQGTLVTVSS VL: DIVMTQSPDSLTVALGERATINCKSSQSLLESGNQKNYLTWYQQKPGQPPKLLIYWSWAKNSGVPDRFSGSGSGTDFTLTISSLQAEDVAVYYCQNAYAFPFTFGQGTKVEIK | bound well | still bound well | did not bind | did not undergo significant endocytosis |  |  |
